The values that follow are results of earlier work, collected in article PMC12930849.

One may read the pKa as the pH at which an ionisable group is half protonated.

Values joined by “and” are separate entries in the source; they are usually repeats but may differ in a detail not shown here. Equal entries are not always repeated.

Targets include Asp119 (UniProt position 137, RCKGTDVQAWI); Asp18 (UniProt position 36, KRHGLDNYRGY); His15 (UniProt position 33, AAMKRHGLDNY); Asp101 (UniProt position 119, KKIVSDGNGMN); Asp52 (UniProt position 70, TDGSTDYGILQ); Cterm (UniProt position 147, IRGCRL-----); Glu7 (UniProt position 25, VFGRCELAAAM); Glu35 (UniProt position 53, CAAKFESNFNT); Asp87 (UniProt position 105, ALLSSDITASV).
Common to all, as to assay: NMR

With “Hen egg-white lysozyme (lysozyme C) (Gallus gallus)”, the pKa was 3.20 ± 0.09 and 3.5 ± 0.3 with Asp119; 2.66 ± 0.08 and 2.8 ± 0.3 in the data set with Asp18; 5.36 ± 0.07 and 5.5 ± 0.2 with His15; 4.09 ± 0.07 and 4.5 ± 0.1 with Asp101; 3.68 ± 0.08 and 3.6 ± 0.3 with Asp52; 2.75 ± 0.02 and 2.7 ± 0.2 with Cterm. The pKa with Glu7 is 2.85 ± 0.25 and 2.6 ± 0.2; with Glu35, 6.20 ± 0.10 and 6.1 ± 0.4; with Asp87, 2.07 ± 0.15 and 2.2 ± 0.1.
